We go through one molecule from article doi:10.1101/2025.02.03.636340.

The target of the assay is HA-SNAP-mGluR3 (rat metabotropic glutamate receptor 3) (rat), P31422. Description: SiMPull with photobleaching step analysis. The settings on record: remark: other sources report otherwise.

Usually stoichiometry N stands for a count of units in the complex or per binding partner.

B1: HA-SNAP-mGluR3 (rat metabotropic glutamate receptor 3), P31422 23-879 (receptor)
chain: LGDHNFMRREIKIEGDLVLGGLFPINEKGTGTEECGRINEDRGIQRLEAMLFAIDEINKDNYLLPGVKLGVHILDTCSRDTYALEQSLEFVRASLTKVDEAEYMCPDGSYAIQENIPLLIAGVIGGSYSSVSIQVANLLRLFQIPQISYASTSAKLSDKSRYDYFARTVPPDFYQAKAMAEILRFFNWTYVSTVASEGDYGETGIEAFEQEARLRNICIATAEKVGRSNIRKSYDSVIRELLQKPNARVVVLFMRSDDSRELIAAANRVNASFTWVASDGWGAQESIVKGSEHVAYGAITLELASHPVRQFDRYFQSLNPYNNHRNPWFRDFWEQKFQCSLQNKRNHRQVCDKHLAIDSSNYEQESKIMFVVNAVYAMAHALHKMQRTLCPNTTKLCDAMKILDGKKLYKEYLLKINFTAPFNPNKGADSIVKFDTFGDGMGRYNVFNLQQTGGKYSYLKVGHWAETLSLDVDSIHWSRNSVPTSQCSDPCAPNEMKNMQPGDVCCWICIPCEPYEYLVDEFTCMDCGPGQWPTADLSGCYNLPEDYIKWEDAWAIGPVTIACLGFLCTCIVITVFIKHNNTPLVKASGRELCYILLFGVSLSYCMTFFFIAKPSPVICALRRLGLGTSFAICYSALLTKTNCIARIFDGVKNGAQRPKFISPSSQVFICLGLILVQIVMVSVWLILETPGTRRYTLPEKRETVILKCNVKDSSMLISLTYDVVLVILCTVYAFKTRKCPENFNEAKFIGFTMYTTCIIWLAFLPIFYVTSSDYRVQTTTMCISVSLSGFVVLGCLFAPKVHIVLFQPQKNVVTHRLHLNRFSVSGTATTYSQSSASTYVPTVCNGREVLDSTTSSL
modifications: here or on the partner: SNAP tag labelled with SBG-JF646; SNAP tag labelled with SBG-JF646
In the case of B1, the % of spots with 2 bleaching steps in the receptor channel came to 50% and the stoichiometry N was found to be 2.
